Measurements as given in publication doi:10.1101/2023.09.22.558821.

Biological target: murine CIZ1 C-terminal fragment C181 (terminal 181 amino-acids) (mouse)
Test: SEC-MALS

stoichiometry N: 2
Substance: murine CIZ1 C-terminal fragment C181 (terminal 181 amino-acids) (domain or fragment)
